Changes are numbered by the printed parent chain. In names and notes the source's numbering stands.
T1: hIL-7R (Example 11) (human, UniProt P16871 21-239)
T1 construct: Called full length hIL-7R for the mRNA display and hIL-7R for the Biacore runs; also called full length hIL-7R; human IL-7R
T1 chain: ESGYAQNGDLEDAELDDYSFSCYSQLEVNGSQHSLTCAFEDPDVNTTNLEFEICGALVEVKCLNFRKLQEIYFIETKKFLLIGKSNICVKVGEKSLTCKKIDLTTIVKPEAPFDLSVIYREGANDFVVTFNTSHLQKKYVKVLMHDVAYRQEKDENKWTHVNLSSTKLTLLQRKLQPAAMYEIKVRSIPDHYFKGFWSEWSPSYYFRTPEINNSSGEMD

B1: 18B1 LC R24A (antibody, human IgG1, kappa, V domains shown)
VH: EVQLVESGGGLVQPGRSLRLSCAASGFTFDDHAMHWVRQAPGKGLEWVSGISWNSRGIGYADSVKGRFTIFRDNAKNSLYLQMNSLRAEDTALYYCAKDEYSRGYYVLDVWGQGTTVTVSS
VL: AIQLTQSPSSLSASVGDRVTITCAASQGISSALAWYQQKPGKAPKLLIYDASSLESGVPSRFSGSGSGTDFTLTISSLQPEDFATYYCQQFNSYPLWITFGQGTRLEIKR
B2: 18B1 LC D50A (antibody, human IgG1, kappa, V domains shown)
VH: B1 VH
VL: B1 VL with A24R, D50A
B3: 18B1 LC S53A (antibody, human IgG1, kappa, V domains shown)
VH: B1 VH
VL: B1 VL with A24R, S53A
B4: 18B1 LC E55A (antibody, human IgG1, kappa, V domains shown)
VH: B1 VH
VL: B1 VL with A24R, E55A
B5: 18B1 LC S52A (antibody, human IgG1, kappa, V domains shown)
VH: B1 VH
VL: B1 VL with A24R, S52A
B6: 18B1 LC S56A (antibody, human IgG1, kappa, V domains shown)
VH: B1 VH
VL: B1 VL with A24R, S56A
B7: 18B1 LC L54A (antibody, human IgG1, kappa, V domains shown)
VH: B1 VH
VL: B1 VL with A24R, L54A
B8: 18B1 LC I29A (antibody, human IgG1, kappa, V domains shown)
VH: B1 VH
VL: B1 VL with A24R, I29A
B9: 18B1 LC Q90A (antibody, human IgG1, kappa, V domains shown)
VH: B1 VH
VL: B1 VL with A24R, Q90A
B10: 18B1 LC G28A (antibody, human IgG1, kappa, V domains shown)
VH: B1 VH
VL: B1 VL with A24R, G28A
B11: 18B1 LC T97A (antibody, V domains shown)
VH: B1 VH
VL: B1 VL with A24R, T99A
notes: copies: 2 + 2
B12: 18B1 LC N92A (antibody, human IgG1, kappa, V domains shown)
VH: B1 VH
VL: B1 VL with A24R, N92A
B13: 18B1 LC S93A (antibody, human IgG1, kappa, V domains shown)
VH: B1 VH
VL: B1 VL with A24R, S93A
B14: 18B1 LC S26A (antibody, human IgG1, kappa, V domains shown)
VH: B1 VH
VL: B1 VL with A24R, S26A
B15: 18B1 LC L33A (antibody, human IgG1, kappa, V domains shown)
VH: B1 VH
VL: B1 VL with A24R, L33A
B16: 18B1 LC P95A (antibody, human IgG1, kappa, V domains shown)
VH: B1 VH
VL: B1 VL with A24R, P95A
B17: 18B1 LC F91A (antibody, human IgG1, kappa, V domains shown)
VH: B1 VH
VL: B1 VL with A24R, F91A
B18: 18B1 LC Q27A (antibody, human IgG1, kappa, V domains shown)
VH: B1 VH
VL: B1 VL with A24R, Q27A
B19: 18B1 LC S31A (antibody, human IgG1, kappa, V domains shown)
VH: B1 VH
VL: B1 VL with A24R, S31A
B20: 18B1 LC S30A (antibody, human IgG1, kappa, V domains shown)
VH: B1 VH
VL: B1 VL with A24R, S30A

Target: T1, hIL-7R (Example 11)
Test: SPR (Biacore), ratio KD of parent 18B1 to KD of variant; row repeated at the end of the table [cont'd]
Source text: (§1) Affinity (KD) of each variant binding to hIL-7R was obtained using this approach, and compared against the enrichment ratio (ER) obtained through NGS heat map analysis for the same variant.

Row | KD Relative to 18B1 | Binder
1 | 1.15 | B1

Target: T1, hIL-7R (Example 11)
Test: SPR (Biacore), ratio KD of parent 18B1 to KD of variant [cont'd]
Source text: as §1

Row | KD Relative to 18B1 | Binder
2 | 0.77 | B2
3 | 0.79 | B3
4 | 0.57 | B4
5 | 0.93 | B5
6 | 0.98 | B6
7 | 0.93 | B7

Target: T1, hIL-7R (Example 11)
Test: SPR (Biacore), ratio KD of parent 18B1 to KD of variant
Source text: as §1

Row | KD Relative to 18B1 | Binder
8 | 1.46 | B8
9 | 1.46 | B9
10 | 0.85 | B10
11 | 1.16 | B11
12 | 0.63 | B12
13 | 1.86 | B13
14 | 1.28 | B14
15 | 1.08 | B15
16 | 0.08 | B16
17 | 0.19 | B17
18 | 1.06 | B18
19 | 0.74 | B19
20 | 1.15 | B1
21 | 0.88 | B20

Target: T1, hIL-7R (Example 11)
Test: NGS enrichment ratio of the mutation in the scFv library selected at 0.2 nM hIL-7R
Source text: (§2) All six CDRs of the antibody were mutated, with each position in the CDR mutated to all possible amino acids at that position. […] FIGS. 17A and 17B provide a schematic of the overall process.

Row | 0.2 nM NGS | Binder
22 | 1.44 | B8
23 | 1.63 | B9
24 | 1.05 | B10
25 | 0.92 | B11
26 | 0.34 | B12
27 | 1.84 | B13
28 | 1.32 | B14
29 | 1.05 | B15
30 | 0.03 | B16
31 | 0.05 | B17
32 | 1.27 | B18
33 | 0.6 | B19
34 | 0.91 | B1
35 | 0.7 | B20

Target: T1, hIL-7R (Example 11)
Test: NGS enrichment ratio of the mutation in the scFv library selected at 0.2 nM hIL-7R [cont'd]
Source text: as §2

Row | 0.2 nM NGS | Binder
36 | 0.3 | B2
37 | 1.07 | B3
38 | 0.23 | B4
39 | 1.09 | B5
40 | 0.96 | B6
41 | 0.99 | B7

Source: patent US20220017627A1 (Bristol-Myers Squibb, published 2022)
